B1: P. aeruginosa TssC1 (H1-T6SS sheath protein), produced in E. coli (natural protein)
chain: MAELSTENLAQGQTTTEQTSEFASLLLQEFKPKTERAREAVETAVRTLAEHALEQTSLISNDAIKSIESIIAALDAKLTAQVNLIMHHADFQQLESAWRGLHYLVNNTETDEQLKIRVLNISKPELHKTLKKFKGTTWDQSPIFKKLYEEEYGQFGGEPYGCLVGDYYFDQSPPDVELLGEMAKISAAMHAPFISAASPTVMGMGSWQELSNPRDLTKIFTTPEYAGWRSLRESEDSRYIGLTMPRFLARLPYGAKTDPVEEFAFEEETDGADSSKYAWANSAYAMAVNINRSFKLYGWCSRIRGVESGGEVQGLPAHTFPTDDGGVDMKCPTEIAISDRREAELAKNGFMPLLHKKNTDFAAFIGAQSLQKPAEYDDPDATANANLAARLPYLFATCRFAHYLKCIVRDKIGSFKEKDEMQRWLQDWILNYVDGDPAHSTETTKAQHPLAAAEVVVEEVEGNPGYYNSKFFLRPHYQLEGLTVSLRLVSKLPSAKEA
notes: TssC1 of the H1-T6SS cluster of Pseudomonas aeruginosa; 498 residues in total (461 traced; M1-A37 not traced); also called VipB/IglB homologue; source: E. coli B834(DE3), co-produced with TssB1 from pET28-B1C1, purified as TssB1C1 tubes (size exclusion chromatography)
B2: P. aeruginosa TssB1 (H1-T6SS sheath protein), produced in E. coli (natural protein)
chain: MGSTTSSQKFIARNRAPRVQIEYDVELYGAEKKVQLPFVMGVMADLAGKPAEPQAAVADRKFLEIDVDNFDARLKAMKPRVAFNVPNVLTGEGNLSLDITFESMDDFSPAAVARKVDSLNKLLEARTQLANLLTYMDGKTGAEEMIMKAIKDPALLQALASAPKPKDDEPQA
notes: TssB1 of the H1-T6SS cluster of Pseudomonas aeruginosa; 172 residues in total (132 traced; M1-S3 and M136-A172 not traced); also called VipA/IglA homologue; source: E. coli B834(DE3), co-produced with TssC1 from pET28-B1C1, purified as TssB1C1 tubes (size exclusion chromatography)

Series [1] concerns the molecule itself. In words: cryo-EM structure; TssB1C1 sheaths (1 mg/ml) purified from E. coli, vitrified; helical reconstruction in RELION; contracted sheath with 13-fold symmetry, 3.3 Å; SEC buffer 50 mM Tris-HCl pH 9, 250 mM NaCl, 1 mM EDTA, 5 mM DTT.
For series [2], the target named is B1. The series is described as above. The following applies: both partners purified.

With B1, the binding result in series [1] is “binds”.

For the molecule B2, the binding result in series [2] is on record as “binds”.

The values are drawn from PMC5807055, “Atomic Structure of Type VI Contractile Sheath from Pseudomonas aeruginosa” (Structure(London, England:1993), 2018).
